Test results reported in publication PMC2892007.
pKd: −log10 of the molar value.

Key:
[1] = biological target: Gelatin-binding domain of human plasma fibronectin (human); experiment: SEC-MALS; mixtures of Lig protein and GBD on Superose 6, 20 mM HEPES, 150 mM NaCl, pH 7.5
[2] = biological target: Gelatin-binding domain of human plasma fibronectin (human); experiment: ITC; GBD in the cell (1 ml), Lig protein in the syringe (250 µl), 25 injections of 10 µl, 25°C, Tris buffer with 100 µM CaCl2; independent binding model
[3] = biological target: Gelatin-binding domain of human plasma fibronectin (human); experiment: ELISA
[4] = biological target: Alexa-488 labeled LigBCen2RW1073C (Leptospira; L. interrogans serovar Pomona is the only strain named); experiment: other fluorescence titration
[5] = biological target: LigBCen7'-8 (Leptospira; L. interrogans serovar Pomona is the only strain named); experiment: SPR
[6] = biological target: LigBCen9 (Leptospira; L. interrogans serovar Pomona is the only strain named); experiment: SPR
[7] = biological target: LigAVar12 (Leptospira; L. interrogans serovar Pomona is the only strain named); experiment: SPR
[8] = biological target: LigA LigAVar12 (Leptospira interrogans) (UniProt Q72MA6); experiment: SPR
[9] = biological target: LigA LigAVar13 (Leptospira interrogans) (UniProt Q72MA6); experiment: SPR
[10] = biological target: LigA LigAVar11 (Leptospira interrogans) (UniProt Q72MA6); experiment: SPR
[11] = biological target: LigA LigAVar7'-8 (Leptospira interrogans) (UniProt Q72MA6); experiment: SPR
[12] = biological target: LigA LigAVar10 (Leptospira interrogans) (UniProt Q72MA6); experiment: SPR
[13] = biological target: LigA LigAVar13 (Leptospira interrogans) (UniProt Q72MA6); experiment: ELISA
[14] = biological target: LigA LigAVar10 (Leptospira interrogans) (UniProt Q72MA6); experiment: ELISA

Sequence of Fibronectin gelatin binding domain (P02751 306-608): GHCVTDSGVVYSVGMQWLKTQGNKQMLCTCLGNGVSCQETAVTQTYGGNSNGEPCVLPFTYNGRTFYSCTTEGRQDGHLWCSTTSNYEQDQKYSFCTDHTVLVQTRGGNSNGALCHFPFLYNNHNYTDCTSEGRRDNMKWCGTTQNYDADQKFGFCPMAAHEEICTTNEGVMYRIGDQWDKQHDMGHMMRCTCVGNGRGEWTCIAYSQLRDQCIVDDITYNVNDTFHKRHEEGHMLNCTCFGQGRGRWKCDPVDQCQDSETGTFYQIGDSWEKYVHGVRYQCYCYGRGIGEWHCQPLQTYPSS

Row | Substance | stoichiometry N [1] | 1/n [2] | pKd [2] | dH [2] [kcal/mol] | stoichiometry N [2] | pKd [3] | also measured
1 | LigBCen7'-8 (domain or fragment) | 1.01 GBD: Lig | 1.01 GBD: Lig | 5.64 | -20.4 | 0.985 Lig: GBD |  | 
2 | LigBCen7'-9 (domain or fragment) | 2.05 GBD: Lig | 1.92 GBD: Lig | 5.88 | -21.1 | 0.52 Lig: GBD | 5.86 | 
3 | LigAVar7'-9 (domain or fragment) | 0.97 GBD: Lig | 0.98 GBD: Lig | 5.21 | -29.2 | 1.02 Lig: GBD | 5.18 | 
4 | LigAVar7'-13 (domain or fragment) | 5.05 GBD: Lig | 4.92 GBD: Lig | 7.33 | -94.9 | 0.203 Lig: GBD | 7.32 | 
5 | LigBCen7'-11 (domain or fragment) | 1.98 GBD: Lig | 2.08 GBD: Lig | 5.86 | -29 | 0.479 Lig: GBD | 5.83 | 
6 | LigAVar7'-11 (domain or fragment) | 2.96 GBD: Lig | 2.98 GBD: Lig | 5.50 | -22.1 | 0.335 Lig: GBD | 5.49 | 
7 | Gelatin-binding domain of human plasma fibronectin (domain or fragment) |  |  |  |  |  |  | pKd [4]: 5.71; koff [5]: 0.00963 s⁻¹; kon [5]: 3570 M⁻¹ s⁻¹; koff [6]: 0.00473 s⁻¹; kon [6]: 560 M⁻¹ s⁻¹; koff [7]: 0.00678 s⁻¹; kon [7]: 2360 M⁻¹ s⁻¹
8 | LigAVar7'-10 (domain or fragment) | 2 GBD: Lig | 1.96 GBD: Lig | 5.36 | -25.3 | 0.51 Lig: GBD | 5.33 | 
9 | LigBCen7'-10 (domain or fragment) | 2 GBD: Lig | 1.96 GBD: Lig | 5.87 | -26.7 | 0.51 Lig: GBD | 5.84 | 
10 | Fibronectin gelatin binding domain (from UniProt P02751) |  |  |  |  |  |  | pKd [8]: 5.54; pKd [9]: 4.98; pKd [10]: 5.30; pKd [11]: 5.18; pKd [12]: 5.37; pKd [13]: 4.96; pKd [14]: 5.40
11 | LigAVar7'-12 (domain or fragment) | 4.04 GBD: Lig | 3.92 GBD: Lig | 5.62 | -30.8 | 0.255 Lig: GBD | 5.61 | 
